Experimental data from paper PMC9635297 (Molecular Biology of the Cell, 2022).

Target: the molecule itself
Assay: SEC

B1: 6xHis-Cdc3 (natural protein)
chain: MSLKEEQVSIKQDPEQEERQHDQFNDVQIKQESQDHDGVDSQYTNGTQNDDSERFEAAESDVKVEPGLGMGITSSQSEKGQVLPDQPEIKFIRRQINGYVGFANLPKQWHRRSIKNGFSFNLLCVGPDGIGKTTLMKTLFNNDDIEANLVKDYEEELANDQEEEEGQGEGHENQSQEQRHKVKIKSYESVIEENGVKLNLNVIDTEGFGDFLNNDQKSWDPIIKEIDSRFDQYLDAENKINRHSINDKRIHACLYFIEPTGHYLKPLDLKFMQSVYEKCNLIPVIAKSDILTDEEILSFKKTIMNQLIQSNIELFKPPIYSNDDAENSHLSERLFSSLPYAVIGSNDIVENYSGNQVRGRSYPWGVIEVDNDNHSDFNLLKNLLIKQFMEELKERTSKILYENYRSSKLAKLGIKQDNSVFKEFDPISKQQEEKTLHEAKLAKLEIEMKTVFQQKVSEKEKKLQKSETELFARHKEMKEKLTKQLKALEDKKKQLELSINSASPNVNHSPVPTKKKGFLR
  stoichiometry N: 2
